This note sets out measurements from doi:10.1101/2021.01.13.426456.

In assay [1] the target is Full length zebrafish Cavin4b (zebrafish) (UniProt Q5PQY9). Nature of the assay: ITC.
Assay [2] has as its target Bin1b SH3 domain (zebrafish). As to the kind of experiment: ITC.

Consider Bin1b SH3 domain (domain or fragment), for which the Kd in assay [1] stood at 55.9 µM.
Regarding Cavin4b PRD peptide, the Kd in assay [2] turned out to be 61.7 µM.
Take “Chikungunya virus (CHIKV) proline-rich peptide”: the Kd in assay [2] came to 0.0889 µM.
